Read-outs that look alike come from different tables or passages of the source.
Key:
[1] = tested on: ErmE erythromycin resistance methyltransferase; conditions: Km of methylation; 10 mM MgCl2, 100 mM NH4Cl, pH 7.8, 30 min 25 C
[2] = molecular target: TSR thiostrepton resistance methyltransferase (tsr) (Streptomyces azureus) (UniProt P18644); conditions: Km +/-3 nM, 15 experiments; 5 mM MgCl2, 25 C
[3] = molecular target: TSR thiostrepton resistance methyltransferase (tsr) (Streptomyces azureus) (UniProt P18644); conditions: Km of methylation; 5 mM MgCl2, 25 mM NH4Cl, pH 7.5, 25 C
[4] = tested on: Ribosomal protein L11; test: inhibition; conditions: affinity from inhibition of TSR methylation; 5 mM MgCl2, 25 mM NH4Cl, pH 7.5, 25 C

Substance 23S rRNA (Erm substrate) has an activity [1] of 23 nM.
With GAR 58-mer RNA the activity [2] was 47 nM.
Work on E. coli mGAR 60-mer yielded an activity [3] of 50 nM and a Ki [4] of 84 nM.

— patent US20020037516
